According to US20020164738:

Molecular target: T1, MAGE-3 protein purified from E. coli (pNB202, pRSET-A, N-terminal His tag)
T1 chain: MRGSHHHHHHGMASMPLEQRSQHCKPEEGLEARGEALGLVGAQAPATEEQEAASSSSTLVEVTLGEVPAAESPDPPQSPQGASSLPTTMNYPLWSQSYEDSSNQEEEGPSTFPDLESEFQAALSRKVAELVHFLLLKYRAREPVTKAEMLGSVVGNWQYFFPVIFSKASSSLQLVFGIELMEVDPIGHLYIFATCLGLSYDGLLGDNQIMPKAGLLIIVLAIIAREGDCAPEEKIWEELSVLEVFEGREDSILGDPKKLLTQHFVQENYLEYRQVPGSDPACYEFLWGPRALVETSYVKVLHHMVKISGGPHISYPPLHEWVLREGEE

B1: pro-caspase-12 (48 kDa) synthesized in vitro, radioactively labeled (protein)
chain: MAARRTHERDPIYKIKGLAKDMLDGVFDDLVEKNVLNGDELLKIGESASFILNKAENLVENFLEKTDMAGKIFAGHIANSQEQLSLQFSNDEDDGPQKICTPSSPSESKRKVEDDEMEVNAGLAHESHLMLTAPHGLQSSEVQDTLKLCPRDQFCKIKTERAKEIYPVMEKEGRTRLALIICNKKFDYLFDRDNADTDILNMQELLENLGYSVVLKENLTAQEMETELMQFAGRPEHQSSDSTFLVFMSHGILEGICGVKHRNKKPDVLHDDTIFKIFNNSNCRSLRNKPKILIMQACRGRYNGTIWVSTNKGIATADTDEERVLSCKWNNSITKAHVETDFIAFKSSTPHNISWKVGKTGSLFISKLIDCFKKYCWCYHLEEIFRKVQHSFEVPGELTQMPTIERVSMTRYFYLFPGN
**Q.** How did the “cleavage of radioactively labeled pro-caspase-12 by mature caspase-12 (SDS-PAGE, autoradiography)” value turn out when B1 was run?
**A.** The value was “Addition of 12 µg of MAGE-3 inhibited the cleavage reaction by caspase-12 almost completely”.
